Where no end group is shown, it is not given here.
Columns and labels:
[1] = Superoxide radical scavenging activity (pyrogallol auto-oxidation method); assay type: physicochemical; settings: at 100 μg/mL
Protocol: As described by Wang et al. and Vásquez et al., the hydroxyl (·OH) and superoxide ( O2−· ) radicals’ scavenging activity was measured using the β-deoxyribose oxidation and pyrogallol auto-oxidation methods, respectively. The comparison was conducted when the samples were replaced by glutathione (0.1 mg/mL).

Caco-2 cells = assay: Iron transmembrane absorption across Caco-2 cell monolayers; assay type: in vitro ADME; settings: chelate 320 μg/mL, p < 0.05
Protocol: In a 24-well Transwell culture plate, Caco-2 cells (0.75 × 10^6 cells/cm^2) were cultivated using Dulbecco’s modified Eagle’s medium that contained fetal bovine serum (20 g/L), streptomycin (1 μg/μL), penicillin (1 μg/μL), and neomycin (1 μg/μL), and it was refreshed every 48 h. After 12–14 d of incubation at 5% CO2 and 37 °C, the transepithelial electrical resistance was more than 400 Ω·cm^2, and a monolayer Caco-2 cell mode was formed. Afterwards, the medium was removed, and Hank’s Balanced Salt Solution was added. After 30 min of cultivation at 5% CO2 and 37 °C, Hank’s Balanced Salt Solution was removed from the apical side, and SAGH peptide–ferrous chelates (320 μg/mL) were added and then cultivated at 5% CO2 and 37 °C for 150 min. Every 30 min, the ferrous amount of the basolateral-side cultivate solution was measured using the o-phenanthroline method.

ACE (from rabbit lungs) [2] = target: T1, ACE (from rabbit lungs) (Oryctolagus cuniculus, UniProt P12822); assay: ACE inhibitory ability (hippuric acid method); assay type: biochemical; settings: hippuric acid method, HHL substrate, absorbance at 228 nm; N = 3; read-out: ACE inhibitory activity (IC50)
T1 construct: ACE (0.1 U, from rabbit lungs, purity > 99.7%, CAS: 9015-82-1) was obtained from Sigma-Aldrich; purchased Sigma-Aldrich (St. Louis, MO, USA); host or cells: rabbit lung tissue
T1 sequence (P12822 34-1310): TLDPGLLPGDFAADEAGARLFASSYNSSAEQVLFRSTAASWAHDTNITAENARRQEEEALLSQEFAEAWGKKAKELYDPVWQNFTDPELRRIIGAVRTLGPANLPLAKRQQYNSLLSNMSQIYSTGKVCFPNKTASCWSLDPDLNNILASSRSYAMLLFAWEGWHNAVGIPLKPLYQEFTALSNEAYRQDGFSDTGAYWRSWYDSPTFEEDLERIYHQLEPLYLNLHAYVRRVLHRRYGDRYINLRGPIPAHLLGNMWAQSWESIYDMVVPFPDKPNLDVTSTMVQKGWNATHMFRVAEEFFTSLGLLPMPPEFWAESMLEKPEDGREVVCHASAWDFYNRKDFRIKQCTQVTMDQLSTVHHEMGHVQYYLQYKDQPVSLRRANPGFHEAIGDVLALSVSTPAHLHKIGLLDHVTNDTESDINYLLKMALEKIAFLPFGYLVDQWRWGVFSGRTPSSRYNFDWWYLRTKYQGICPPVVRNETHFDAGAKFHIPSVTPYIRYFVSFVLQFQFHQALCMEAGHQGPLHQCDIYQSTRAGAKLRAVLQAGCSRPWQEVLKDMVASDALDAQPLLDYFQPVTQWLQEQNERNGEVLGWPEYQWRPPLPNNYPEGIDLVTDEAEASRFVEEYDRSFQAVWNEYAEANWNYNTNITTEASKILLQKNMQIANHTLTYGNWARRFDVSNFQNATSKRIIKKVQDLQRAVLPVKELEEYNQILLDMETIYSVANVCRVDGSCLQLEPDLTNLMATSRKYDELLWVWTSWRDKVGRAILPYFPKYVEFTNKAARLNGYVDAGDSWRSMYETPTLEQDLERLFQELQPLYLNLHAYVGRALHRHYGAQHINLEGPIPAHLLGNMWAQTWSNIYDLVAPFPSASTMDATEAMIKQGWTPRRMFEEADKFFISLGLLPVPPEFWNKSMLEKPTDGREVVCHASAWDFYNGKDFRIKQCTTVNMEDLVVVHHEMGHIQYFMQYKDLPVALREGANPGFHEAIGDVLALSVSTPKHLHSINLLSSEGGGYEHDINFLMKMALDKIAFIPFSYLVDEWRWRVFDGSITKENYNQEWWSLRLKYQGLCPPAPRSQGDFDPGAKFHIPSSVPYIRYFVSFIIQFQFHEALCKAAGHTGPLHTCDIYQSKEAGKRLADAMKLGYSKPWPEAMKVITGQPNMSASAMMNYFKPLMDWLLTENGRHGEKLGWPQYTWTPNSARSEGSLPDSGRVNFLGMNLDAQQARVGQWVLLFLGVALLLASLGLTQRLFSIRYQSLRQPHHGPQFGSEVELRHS
From the text: (§1) The hippuric acid method was used to measure the samples’ inhibitory ability towards ACE, following the same procedures as Zheng et al.. The absorbance at 228 nm was the hippuric acid content and represented ACE activity; therefore, the inhibitory ability of samples towards ACE was defined as the percentage of reduction in the absorption at 228 nm between the control and sample groups. Moreover, the ACE inhibitory kinetic of SAGH peptides was investigated by employing a Lineweaver–Burk plot with N-hippuryl-L-histidyl-L-leucine (HHL, 0.13–1.32 mmol/L) as the substrate.
As described by Wu et al., the simulative gastric digestive fluid consisted of sodium chloride (0.18 mol/L), ultrapure water (180 mL), and 0.40 mg/mL of pepsin. The simulation intestinal digestive juice was composed of NaHCO3, ([…]), bile salt (3 g/100 mL), pancreatin (0.35 mg/mL), and 180 mL of ultrapure water. The antihypertensive and antioxidant SAGH peptides (5 mg/mL, 60 mL) were first hydrolyzed using 150 mL of simulative gastric fluid at 37 °C and 140 rpm for 90 min. The mixture was adjusted to pH 7.0, and 180 mL of the simulative intestinal hydrolysis fluid was added and stirred at 37 °C for 2 h. After boiling for 6 min, the mixture was cooled with running water to room temperature. The ACE inhibition capacity and antioxidant ability of the treated SAGH peptides were detected and compared to those of the […] SAGH peptides.

[3] = Gastrointestinal stability of peptide–ferrous chelate (ferrous solubility in simulated digestion); assay type: in vitro ADME
Protocol: Next, the intestinal digestive fluid was added, and digestion was continued at pH 6.8 for 2 h in the EDZF-C002 thermostatic vibrator ([…], 175 rpm).

ACE (from rabbit lungs) [4] = target: T1, ACE (from rabbit lungs); assay: ACE inhibitory kinetics (Lineweaver–Burk plot); assay type: biochemical; settings: HHL 0.13–1.32 mmol/L as substrate, N = 3
From the text: as §1

PMYGGGMV–ferrous chelate: chelate prepared by reacting the peptide with FeCl2 at pH 6.5 (also: ferrous iron chelate (reaction with FeCl2))
Superoxide Radical Scavenging Ability (%) Before Gastrointestinal Digestion [1]: 75.49 ± 4.09 b % | Superoxide Radical Scavenging Ability (%) Before Gastrointestinal Digestion ([1]; listed as PMYGGGMV–ferrous chelates): 75.49% | ability to improve ferrous transmembrane absorption (Caco-2 cells; Caco-2 monolayer, Transwell, TEER > 400 Ω·cm2, apical to basolateral, comparators 0.3 mg/mL, HBSS, 37 °C, 5% CO2, 150 min, o-phenanthroline every 30 min, N = 3): greater than that of ferrous chloride | iron transport across the Caco-2 monolayer compared with ferrous lactate (Caco-2 cells; during 120–150 min, apical to basolateral, ferrous lactate 0.3 mg/mL): better | IC50 (ACE (from rabbit lungs) [2]): 116 µM | ferrous solubility during gastric digestion ([3]; 0–90 min, simulated gastric fluid pH 1.9, 37 °C, 175 rpm, soluble ferrous by o-phenanthroline every 30 min, N = 3): relatively stable | ferrous solubility during intestinal digestion ([3]; 91–240 min, intestinal digestive fluid pH 6.8, soluble ferrous by o-phenanthroline, p < 0.05): apparently decreased | ferrous solubility compared with ferrous lactate and ferrous chloride ([3]; from 90 to 150 min of simulated gastrointestinal digestion, p < 0.05): much higher than those of ferrous lactate and ferrous chloride | ACE inhibition mode (ACE (from rabbit lungs) [4]): increased the Km value of the Michaelis–Menten kinetic curves but did not change the Vmax

Reference: paper PMC11901700, “A Sweet Almond Globulin Multifunctional Peptide: Identification, In Silico Screening, Restraint Mechanisms to Keap1 and ACE, and Antihypertensive and Ferrous Transport Efficiency” (Nutrients, 2025)
